The target in this experiment is antithrombin III (plasma purified human AT-III), used as the AT-III/unfractionated heparin complex (human), P01008. Put plainly: K0.5: AT-III/UFH titrated against FIXa, 10 s, residual cleavage of Mesyl-D-CHG-Gly-Arg-AMC. As to conditions: remark: other sources report otherwise.

What is called IC50 is the midpoint of a concentration-inhibition curve.

B1: FIXa-R318Y/R338E/R403E/E410N, P00740 47-191; P00740 227-461 (enzyme)
chain 1: YNSGKLEEFVQGNLERECMEEKCSFEEAREVFENTERTTEFWKQYVDGDQCESNPCLNGGSCKDDINSYECWCPFGFEGKNCELDVTCNIKNGRCEQFCKNSADNKVVCSCTEGYRLAENQKSCEPAVPFPCGRVSVSQTSKLTR
chain 2: VVGGEDAKPGQFPWQVVLNGKVDAFCGGSIVNEKWIVTAAHCVETGVKITVVAGEHNIEETEHTEQKRNVIRIIPHHNYNAAINKYNHDIALLELDEPLVLNSYVTPICIADKEYTNIFLKFGSGYVSGWGRVFHKGYSALVLQYLRVPLVDRATCLESTKFTIYNNMFCAGFHEGGRDSCQGDSGGPHVTEVEGTSFLTGIISWGEECAMKGKYGIYTKVSEYVNWIKNKTKLT
The molecule B1 displayed an IC50 of 5.88 µM.
